Laboratory results from article PMC5207708.

Assays:
MIER2 = MIER2 (UniProt Q8N344); experiment: co-IP; HEK293 cells transfected with the myc-tagged protein; lysis in 1% Triton X-100, 150 mM NaCl, 20 mM Tris-Cl pH 7.5, 1 mM EDTA; IP with 9E10 anti-myc overnight at 4°C; endogenous HDAC1 and HDAC2 by Western; band densitometry (HDAC:MIER ratio); also with or without 12.5 μM Ins(1,4,5,6)P4 during the IP (no substantial difference)
MIER3 isoform 1 = MIER3 isoform 1 (UniProt Q7Z3K6); experiment: as above
Sequence of UniProt Q7Z3K6 (Q7Z3K6 whole entry, canonical isoform): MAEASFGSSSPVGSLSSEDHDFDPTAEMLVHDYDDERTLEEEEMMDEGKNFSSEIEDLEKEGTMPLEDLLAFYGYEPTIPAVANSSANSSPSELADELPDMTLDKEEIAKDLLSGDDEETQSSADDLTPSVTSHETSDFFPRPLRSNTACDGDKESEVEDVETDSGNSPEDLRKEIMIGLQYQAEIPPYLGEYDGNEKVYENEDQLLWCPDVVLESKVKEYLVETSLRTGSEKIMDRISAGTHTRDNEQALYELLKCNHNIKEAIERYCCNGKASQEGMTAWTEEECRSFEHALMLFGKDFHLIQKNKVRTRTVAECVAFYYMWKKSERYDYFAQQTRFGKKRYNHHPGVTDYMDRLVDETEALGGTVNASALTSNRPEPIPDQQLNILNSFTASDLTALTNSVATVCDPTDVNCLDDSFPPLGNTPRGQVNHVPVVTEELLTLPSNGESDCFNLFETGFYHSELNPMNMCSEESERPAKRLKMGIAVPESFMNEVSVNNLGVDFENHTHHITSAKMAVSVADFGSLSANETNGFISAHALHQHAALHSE

Sequence of UniProt Q8N344 (Q8N344 whole entry, canonical isoform): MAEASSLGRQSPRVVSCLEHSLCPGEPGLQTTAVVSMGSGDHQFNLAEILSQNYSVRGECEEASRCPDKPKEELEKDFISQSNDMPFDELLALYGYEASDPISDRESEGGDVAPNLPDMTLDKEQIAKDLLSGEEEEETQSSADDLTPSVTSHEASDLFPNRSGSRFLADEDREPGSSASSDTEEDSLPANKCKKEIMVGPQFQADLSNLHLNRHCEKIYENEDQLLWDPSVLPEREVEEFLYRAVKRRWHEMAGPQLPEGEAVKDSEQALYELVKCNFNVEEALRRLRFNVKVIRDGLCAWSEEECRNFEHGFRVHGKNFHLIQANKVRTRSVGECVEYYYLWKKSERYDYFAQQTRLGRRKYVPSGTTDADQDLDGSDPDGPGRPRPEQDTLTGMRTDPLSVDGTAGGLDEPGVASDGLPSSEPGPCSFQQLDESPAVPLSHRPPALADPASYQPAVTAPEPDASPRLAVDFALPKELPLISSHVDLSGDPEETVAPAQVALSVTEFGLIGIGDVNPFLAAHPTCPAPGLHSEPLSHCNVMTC

Row | HDAC:MIER ratio in the immunoprecipitate, percent of that in the MIER1α complex (MIER2) [%] | HDAC:MIER ratio in the immunoprecipitate, percent of that in the MIER1α complex (MIER3 isoform 1) [%] | Substance
1 | 20 | – | HDAC2 (from UniProt Q92769 1-488) (enzyme)
2 | – | 9 | HDAC1 (from UniProt Q13547 1-482) (HEK293 cells)
3 | – | 9 | HDAC2 (from UniProt Q92769 1-488)
